Laboratory results from US20080166364A1 (COVX TECHNOLOGY IRELAND, published 2008).
Non-standard residues stand in square brackets, D forms with d. No end group written: not given here. Phe(4-NO2) = N[C@@H](Cc1ccc([N+](=O)[O-])cc1)C(=O)O; Phe(4-COOH) = N[C@@H](Cc1ccc(C(=O)O)cc1)C(=O)O; Bpa = N[C@@H](Cc1ccc(C(=O)c2ccccc2)cc1)C(=O)O; Hyp = O=C(O)[C@@H]1C[C@@H](O)CN1; 0P linker = not defined here; acyl = not defined here; ThA = thiazolylalanine

T1: human angiopoietin-2 protein (human, UniProt O15123 19-496)
T1 construct: bought; also called Ang-2; Ang2
T1 sequence (looked up): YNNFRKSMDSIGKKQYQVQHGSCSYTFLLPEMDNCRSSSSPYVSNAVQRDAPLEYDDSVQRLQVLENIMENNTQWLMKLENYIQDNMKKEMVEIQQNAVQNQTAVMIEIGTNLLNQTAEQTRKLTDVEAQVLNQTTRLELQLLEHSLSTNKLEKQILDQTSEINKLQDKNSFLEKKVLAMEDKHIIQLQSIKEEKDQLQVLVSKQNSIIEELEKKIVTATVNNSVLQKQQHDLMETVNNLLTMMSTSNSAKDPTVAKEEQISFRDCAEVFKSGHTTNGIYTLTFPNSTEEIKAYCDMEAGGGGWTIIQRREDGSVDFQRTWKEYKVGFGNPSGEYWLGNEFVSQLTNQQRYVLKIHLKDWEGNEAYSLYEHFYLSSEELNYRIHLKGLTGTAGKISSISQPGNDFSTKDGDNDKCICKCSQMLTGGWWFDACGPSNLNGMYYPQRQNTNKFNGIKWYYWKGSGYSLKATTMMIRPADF


Molecular target: T1, human angiopoietin-2 protein
Assay: competitive ELISA, coated Ang-2, 0.25 nM hTie-2-Fc; T form
Procedure: For competitive ELISA, human angiopoietin-2 protein and Tie-2-Fc (R&D Systems) were reconstituted without carrier protein. Mouse anti-human Tie-2 (Pharmingen) was used as the primary antibody and goat anti-mouse-IgG1-HRP (Pierce) was used as the secondary antibody. TMB substrate from Pierce was used.
High-binding half-well plates were coated with Ang-2 (100 ng/well) in 50 μl PBS and incubated at 4° C. overnight. Plates were washed three times with washing buffer (0.1% Tween 20, PBS, pH 7.4) and blocked with Superblock (Scytek), 100 μl/well at room temperature (“RT”) for 1 hour. After removing the blocking solution, 50 μl of an Ang-2 binding peptide compound (1 uM and 5× serial dilution) in the presence of 0.25 nM hTie-2-Fc using Superblock as diluent was added and incubated at RT for 2 hours. Plates were washed 3 times with washing buffer. Then, 50 ul of 0.1 ug/ml mouse anti-human Tie-2 diluted in Superblock added and incubated at RT for 1 hour. Following incubation, 50 ul of 1:5,000 dilution of goat anti-mouse IgG-HRP in Superblock was then added and incubated at RT for one hour. After washing 3 times, 50 μl (25 μl TMB+25 μl H₂O₂) was added, and incubated for 3-5 minutes. Color development was monitored and stopped with 25 μl of 2 M H₂SO₄. OD450 nm with a correction wavelength of 540 nm was measured.

| Binder | IC50 |
| --- | --- |
| QXYQXLDELDXTLYDQFMLQQG (not fully specified; N-term acyl cap; C-term NH2 cap; AcK at 2; DHP at 5 (printed D(HP)); 0P linker on K11) [Compound 34 (T): targeting peptide plus 0P linker] | 0.225 µM |
| QNYQPLDELDXTLYDQFMLQQG (not fully specified; N-term acyl cap; C-term NH2 cap; 0P linker on K11) [Compound 28 (T): targeting peptide plus 0P linker] | 0.175 µM |
| QXYQPLDELDXTXYDQFMLQQG (not fully specified; N-term acyl cap; C-term NH2 cap; AcK at 2; 0P linker on K11; HF at 13) [Compound 39 (T): targeting peptide plus 0P linker] | 4.89 µM |
| QXYQPLDELDXTLYDQFMLQQG (not fully specified; N-term acyl cap; C-term NH2 cap; AcK at 2; 0P linker on K11) [Compound 29 (T): targeting peptide plus 0P linker] | 0.0833 µM |
| QXYQPLDEXDXTLYDQFMLQQG (not fully specified; N-term acyl cap; C-term NH2 cap; AcK at 2; 0P linker on K9; AcK at 11) [Compound 30 (T): targeting peptide plus 0P linker] | 0.279 µM |
| QXYQXLDELDXTLYDQFMLQQG (not fully specified; N-term acyl cap; C-term NH2 cap; AcK at 2; HP at 5; 0P linker on K11) [Compound 35 (T): targeting peptide plus 0P linker] | 0.121 µM |
| QK(Ac)YQPLDEK(0P linker)DETLYDQFMLQQG (not fully specified (N-terminus, C-terminus); printed as Q(AcK)Y QPL DEK(0P) DET LYD QFM LQQ G; reading uncertain) [Compound 33 (T): targeting peptide plus 0P linker] | 0.37 µM |
| QNYQPLDELDXTLYDQFMLQQG (not fully specified; N-term acyl cap; C-term NH2 cap; 4P linker on K11) [Compound 25 (T): targeting peptide plus 4P linker] | 0.3 µM |
| QKYQPLDELDXTLYDQFMLQQG (not fully specified; N-term acyl cap; C-term NH2 cap; 0P linker on K11) [Compound 27 (T): targeting peptide plus 0P linker] | 0.029 µM |
| QXYQPLDELDXTXYDQFMLQQG (not fully specified; N-term acyl cap; C-term NH2 cap; AcK at 2; 0P linker on K11; Nva at 13) [Compound 41 (T): targeting peptide plus 0P linker] | 1.34 µM |
| QXYQPLDELDXTLYDQFMLQQG (not fully specified; N-term acyl cap; C-term NH2 cap; AcK at 2; 4P linker on K11) [Compound 24 (T): targeting peptide plus 4P linker] | 0.207 µM |
| QXYQPLDELDXTIYDQFMLQQG (not fully specified; N-term acyl cap; C-term NH2 cap; AcK at 2; 0P linker on K11) [Compound 36 (T): targeting peptide plus 0P linker] | 2.41 µM |
| QXYQPLDEIDXTLYDQFMLQQG (not fully specified; N-term acyl cap; C-term NH2 cap; AcK at 2; 0P linker on K11) [Compound 37 (T): targeting peptide plus 0P linker] | 1.27 µM |

More lines, now with the values ahead:

| IC50 | Binder |
| --- | --- |
| 1.34 µM | QXYQPLDELDXTXYDQFMLQQG (not fully specified; N-term acyl cap; C-term NH2 cap; AcK at 2; 0P linker on K11; HL at 13) [Compound 42 (T): targeting peptide plus 0P linker] |
| 0.0433 µM | acyl-QK(Ac)YQ[Hyp]LDE[ThA]DK(0P linker)TL[Phe(4-COOH)]DQFMLQQG-NH2 (reading uncertain; also: printed as Q(AcK)Y Q(HP)L DE(ThA) DK(0P)T L(CO2H)FD QFM LQQ G) [Compound 47 (T): targeting peptide plus 0P linker] |
| 0.0827 µM | acyl-QK(Ac)YQ[Hyp]LDE[ThA]DK(0P linker)TL[Bpa]DQFMLQQG-NH2 (reading uncertain) [Compound 46 (T): targeting peptide plus 0P linker] |
| 0.0247 µM | QK(Ac)YQ[Hyp]LDE[ThA]DK(0P linker)TL[Phe(4-NO2)]DQFMLQQG (not fully specified (N-terminus, C-terminus); printed as Q(AcK)Y Q(HP)L DE(ThA) DK(0P)T L(NO2F)D QFM LQQ G; reading uncertain) [Compound 45 (T): targeting peptide plus 0P linker] |
| 0.0824 µM | acyl-QK(Ac)YQPLDEK(Ac)DK(0P linker)TL[Phe(4-NO2)]DQFMLQQG-NH2 (reading uncertain; also: printed as Q(AcK)Y QPL DE(AcK) DK(0P)T L(NO2F)D QFM LQQ G) [Compound 48 (T): targeting peptide plus 0P linker] |
| 0.214 µM | QHYQPLDELDXTLYDQFMLQQG (not fully specified; N-term acyl cap; C-term NH2 cap; 0P linker on K11) [Compound 60 (T): targeting peptide plus 0P linker] |
| 0.177 µM | QRYQPLDELDXTLYDQFMLQQG (not fully specified; N-term acyl cap; C-term NH2 cap; 0P linker on K11) [Compound 59 (T): targeting peptide plus 0P linker] |
| 0.0369 µM | QXYQPLDELDXTLFDQFMLQQG (not fully specified; N-term acyl cap; C-term NH2 cap; AcK at 2; 0P linker on K11) [Compound 44 (T): targeting peptide plus 0P linker] |
